Experimental data reported in the DeepSol protein solubility set.

Assay: soluble on expression in E. coli; label from the status in PepcDB or PDB records
With “MIPPLNRYVPALSKNELVKTVTNRDIQFTSFNGKDYPLCFLDEKTPLLFQWFERNPARFGKNDIPIINTEKNPYLNNIIKAATIEKERLIGIFVDGDFFPGQKDAFSKLEYDYENIKVIYRNDIDFSMYDKKLSEIYMENISKQESMPEEKRDCHLLQLLKKELSDIQEGNDSLIKSYLLDKGHGWFDFYRNMAMLKAGQLFLEADKVGCYDLSTNSGCIYLDADMIITEKLGGIYIPDGIAVHVERIDGRASMENGIIAVDRNNHPALLAGLEIMHTKFDADPYSDGVCNGIRKHFNYSLNEDYNSFCDFIEFKHDNIIMNTSQFTQSSWARHVQ” the “soluble on expression in E. coli” value was “not soluble”. In the case of “MGSDKIHHHHHHMMLNQYQIFTMVDNLSLLHHKNDPMNKNDLINTKSTLCPCGSKQLYSKCCEPYHLSHAVAERPEHLMRSRYSAFVLRQFHYLITTHHADYLHGLTEQQLAQGDVQWLGLQVLSSKQESDHGEVTFKAWFIEDKHIDAIYECSSFIKQDGCWFYTHGQQMQTPLPSRNDACICSSGKKFKLCCAKLMR”, the “soluble on expression in E. coli” value is reported as “not soluble”. For “MAHHHHHHMGTLEAQTQGPGSMREVLVPYAGVSPSVDSTAFIAGNARIIGDVCIGKNASIWYGTVLRGDVDKIEVGEGTNIQDNTVVHTDSMHGDTVIGKFVTIGHSCILHACTLGNNAFVGMGSIVMDRAVMEEGSMLAAGSLLTRGKIVKSGELWAGRPAKFLRMMTEEEILYLQKSAENYIALSRGYL”, the “soluble on expression in E. coli” value was “soluble”. For “MGSDKIHHHHHHMANFAYEVFSTVVAQHTFYQAAATLNVTPSAVSHSINQLEKELGFPLFIRNRSGVELTSDGRQVLPYVQEILNTESNLRQVADNIQGLHSGSVRIGGFSSVCINWLPRIIREFNHKYPDIKISVMQGNFNEITNWAKIGTIDIGFTSMPVNENLLVHSLINDPIYCVTPADFIPENGEFITTDDVADKNFILQQSDYDRDTKLALDHYHVTNNFLRFSIDDQSIISMVESGLGMGILPQLALRKLTGDVNTFSFAEPYNREIALVANKTQAAAPSTAIMIRAIKQFLTKEYPDQMLWQ”, the “soluble on expression in E. coli” value was “not soluble”. In the case of “MAHHHHHHMSVSSPLASSGEREQYGPQEQRQYGFVPVQMTNLVPVRVVSVHGDFFDMEIHQDAPLHIVQRAAEDCFKVRPELQLLTHNRKPINPNQSLRRNGCLLLKGDPFVKIVLDVKKGSRLNIVCQMAHCEPIPLACEAEDTIWDVKKKFCSSLEKSEVTPQRIRLLWRYWELNDKATVDYYHIPTNSKLTVMKKRDILGGQQTERRRAPSQRRRQDVQRRHERCDADTDDVAAWPKAPSVVPPYEKYRQASGREPLEGEDNRSKTPNANGSAQVVEGGADRDSHHPPIRAWPALPQEQFGRAVIPLYPIVPPLSGGSYYREPRAQTPDRRPAVVPVAEATQVVDFTEVQRLRMEVEELGRRMETCVTDRAEFSAMEESFRAAVTRVSELEASVGRVQNLLKRALHLM”, the “soluble on expression in E. coli” value is reported as “not soluble”. For “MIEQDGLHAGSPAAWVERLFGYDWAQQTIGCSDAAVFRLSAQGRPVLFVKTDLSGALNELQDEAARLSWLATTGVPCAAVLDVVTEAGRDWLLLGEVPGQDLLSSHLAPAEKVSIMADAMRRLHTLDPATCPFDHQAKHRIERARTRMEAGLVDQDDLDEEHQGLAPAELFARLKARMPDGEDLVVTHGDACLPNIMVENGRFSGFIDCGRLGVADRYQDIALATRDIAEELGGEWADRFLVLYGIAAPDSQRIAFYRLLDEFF”, the “soluble on expression in E. coli” value was “soluble”. For “MLNLCDEDFDAMELVEGALALNKAINPETQLEWAHIELARLLKEAELALVHERDEKARFEAFLRLFYQEWGFSGDREAYFDSRNAFIDQVLQRRKGIPVSLGSLLLYLGHKLGFPLNGISFPTQFLLSLNWSGERPIYLNPFNGEIVSQHTLQAWLVGHKGPLAKLKPQHLQSVDNPTIIGRWLALLKSALLREERYTLALRCTDLALTFVPDDPYEIRDRGFIYQQLQCHQIAISDYQYFIEHCPNDPAAELLKTQVNALSHDSQVTLHLEHHHHHH”, the “soluble on expression in E. coli” value was “soluble”. In the case of “MGSDKIHHHHHHMQFLKVYSVFGEEVVGCHVRIENLSVACSVVSAGGTHPSEKCVCNHEFSSVSLHQKKHPHLEKLLETSRPIKLDSSSKVLILSDLHMGNGGRRDEFRRNSELVRSMLQDYYLPGGYSLVLNGDIEELFKFSVEDITKVWGHIYDLFLQFEKNGFFWKTYGNHDSDLFEERNYPLSKHLLESIRFQYGDEVMLLFHGHQASILLWETYPLVSRAVVLFLRYVAKPIGIRNFSTAYNSRRRFAIEKSIYEFSNQAKIVSIIGHTHRPLFESLSKVDHLKYKIEELCRQYPSALPEERLAIQERIGELKAMLDACFTEGKKIGLRSGRYNNIAIPSVFNSGCAIGKRGVTALEIDGDRIRLVYWFKEKQGRRFVSDRNSEPEQLGDTGFYRIVLNEDHLDYVFSRIRLLA”, the “soluble on expression in E. coli” value is reported as “not soluble”. With “GPGSMSQEGGKSEPDANEKEQRNQKLRLGLEAMFCAQEIPSEKRTDIESDGEEVPPSITRDEDRYRQVAEAILRIDTKSKIIEINNIRLFSVAEIELDKLTECTSLSLRKNLLHDLIPFPEDLADRLDELDLFDNKIRKLNDFFETVTVPGDPPTTKTLPNAYKCLTKLDLSYNQIREIGGLDSIGGTLRELYLVENKIKEVKNLDSLVNLELLELGGNRLRAIGSGLEKLTKLKQLWLGKNKISSIGTALHKLVSLEILSLQANRITSVDAENFLGAKANPNLREVYLSENGLTSVGNVRHLSTIKIIDFSFNSICSIDAEEINPQTMPKLEEFWLTDGNIADWEEVGKLSGFTSTLKTVYLERNPIEEDKRYRDKVYMYLPFLVQIDSWPIVNKGNLEADRKRKA” the “soluble on expression in E. coli” value was “not soluble”. With “MSLENGYTPKLMYERLSKRLGSLFTFFSEPAFENLLPPPPPEQYRRPLTLVVTLDDFLIHSNWDTQHGWRTGKRPGLDYFLGYLSQYYEIVVFSSNLQMYSDKTVNKLDPYHAYISYALFREACRYKDGKLIKDLSLLNRDLGKTVMIDVDEDSAALQPENSIIVKKWEGQPDEYLISLIPFLEYLATQPVKDVRPILNSYKDKSNEGHHHHHH” the “soluble on expression in E. coli” value was “soluble”. For “MSANLVTPKWGYIGKMPAKGDFVKDGISPEFANRWHDWQQAVIAVSKEQLGDTWNDYFLTAPVWHFALDVSYMDDATYIGSMIPSVDACGRYFFFTVVRAVKGKAAQYWAQSGWTEDSQTLALSVLDDEFVFDVWHRSMQEKCELVSEVSICNEEMALLYQSPISTVFSFSTEAKQNTLLNHLIESQQRKPCFWWTEGSTHIESCMFVSTGLPSIGQFSAMLDGRWQMWSW”, the “soluble on expression in E. coli” value was “not soluble”. For “MSLKLVRKFARDIEVDELAICIPLEYKSACLIYELSRYTNVYAAKLDDFSTKPEVVSWLKEKGVEVKMKRDVVNAEYFLDCAAVLSRVAVKSGKERLKVVELTKTGEEYLRKMDVRMKAISLDSSTLKGTGENTHGTAFGLLDALLRLNVFLPGKKALILGFGRVGRGCARLLKSVGCDVAVWDNDETRQIEALYEGFRVEKDFTAEVVVTCTGVKGVLGKEELEEISDGSIILNMGAEMEIEPAGELIKDYGLVKEYEIAGKRYFLVADGYAANLALGSGTPIEVMDRTFSAAILALNHLSRSDFDGIIPLPHHIESTILEAIMMYEGHHHHHH”, the “soluble on expression in E. coli” value was “not soluble”. With “GPSASLLVQNGTLNVGDAIVVGNTYGRIRAMVNDLGQRIKTAGPSTPVEITGINDVPQAGDRFV” the “soluble on expression in E. coli” value was “soluble”. With “GAMAPGGEMTFSIPTHKCGLVIGRGGENVKAINQQTGAFVEISRQLPPNGDPNFKLFIIRGSPQQIDHAKQLIEEKIEGPLCPVGPGPGGPGPAGPMGPFNPGPFNQ” the “soluble on expression in E. coli” value was “soluble”. In the case of “QVTVQSSPNFTQHVREQSLVTDQLSRRLIRTYQLYSRTSGKHVQVLANKRINAMAEDGDPFAKLIVETDTFGSRVRVRGAETGLYICMNKKGKLIAKSNGKGKDCVFTEIVLENNYTALQNAKYEGWYMAFTRKGRPRKGSKTRQHQREVHFMKRLPRGHHTTE”, the “soluble on expression in E. coli” value is reported as “soluble”. In the case of “MSSLHKSRIADFQDVLKEPSIALEKLRELSFSGIPCEGGLRCLCWKILLNYLPLERASWTSILAKQRELYAQFLREMIIQPGIAKANMGVSREDVTFEDHPLNPNPDSRWNTYFKDNEVLLQIDKDVRRLCPDISFFQRATDYPCLLILDPQNEFETLRKRVEQTTLKSQTVARNRSGVTNQEQNIKPQFFAFRWLTLLLSQEFLLPDVTRIWDSLFADDNRFDFLLLVCCAMLMLIREQLLEGDFTVNMRLLQDYPITDVCQILQKAKELQDSK”, the “soluble on expression in E. coli” value is reported as “soluble”. With “QMTLTELRAFLDQMNNLPCAMHQIGDVKGVLEQVEAYQAEAREALASLPSSPGLLQSLLERGRQLGVEVPEAQQLQRQVEQARWLDEVKRTLAPSARRGTLAVMRGLLVAGASVAPSPAVDKAQAELQELLTIAERWEEKAHLCLEARQKHPPATLEAIIREAENIPVHLPNIQALKEALAKARAWIADVDEIQNGDHYPCLDDLEGLVAVGRDLPVGLEELRQLELQVLTAHSWREKASKTFLKKNS” the “soluble on expression in E. coli” value was “not soluble”. For “MGSDKIHHHHHHMELRHLRYFAATAEELNFTRAANRLHISQPAVSRLIKELECELGAQLFTRERFGLRLTAAGEKFLFYARRVLQDCEEGIRAVRENGLNHQKLTIGFISTAMESFLSDALVRLSQERPDIDVTVNEMSPGDQIAALRYRQIDLGFIGNPHDGAGDEFELYVLREVPLVAVLPVRHRLAGRSEICIGELEGDTFIGYLEDKFPGRNRVISTACARAGFRPKFELKAGSLIEVLGMIGTGKGVCLMPSDVAGLPHPNVAFIPLRDPLDPVRLAAAWLPGNTNPALHQLIAILAADCSSDTGRTSR”, the “soluble on expression in E. coli” value was “not soluble”. In the case of “MAKYCLKKTSKRVSCAKRYKIEKKVRDHNRKVKKEAKKNGTTNKKEKTISVPNSCPFKEEILVQAEQEREKIKVRQEAAKEAAKIHRIEKRKNNLPANFESMVAKASKQGTEFDKKVASAAEHEKFNTLDDKTIKAYASEVRKTVEIADVIIQVLDARDPLGSRSKSVEDQVLKGGKRLVLLLNKIDLVPRENVQKWLEYLRGQFPTIAFKASTQEQKSNIGRFNSAILNNTETSKCVGADIVMKILANYCRNKDIKTSIRVGVVGFPNVGKSSVINSLKRRKACNVGNLPGITKEIQEVELDKNIRLIDSPGVILVSQKDLDPIEVALKNAIRVDNLLDPIAPVHAILRRCSKETIMLHYNLADFNSVDQFLAQLARRIGKLRRGARPDVNAAAKRVLNDWNTGKLRYYTHPPEQGTAKEDIVVPAEVVSQFSKEFDIDAIAEEQNQIVEGLPMESDIIAPHNSDEEEDDDDEMETDVNEKKQTVTSGRKVKGPTKDDDKPVLPESLALEGNVQLNKLIKTAIKKQKKKSKKTANRADKLSDSLGNMLGGDAMEM”, the “soluble on expression in E. coli” value is reported as “not soluble”. In the case of “VAKQRPDGIRAYEDPAGGWGALKALAVALKDQQLVVEGIPTLLKQNQPEGFDCPGCAWPDPKHTSAFEFCENGAKAVTWESTPKRVGPDFFAQHTVTSLWECSDYWLEDQGRLTHPMRYDAQTDKYEPVDWQVAFDDIAAKLDALDDPNQLELYTSGRASNEAAFLFQLFGRQFGTNNFPDCSNMCHEPTSVGLPRSIGIGKGTVTLDDFDKAELIISMGHNPGTNHPRMMTPLRNASRRGVKIIVLNPLKERALERFEAPQAPLEMATTSSTPIASCYFQVKVGGDAAALKGICKALVAADKVARAADLAPLLDHTFIVGHTAGFDALVDDLEGCSWSAIERASGLPRADMERIAADYAASNATIVCYGMGITQHVTGTANVQQIANLLLLKGNIGKPGAGICPLRGHSNVQGDRTVGITERPSEAFLDRLRDVFGFEPPRAFGHSVVDSIAAMRDGRAKAVICLGGNLAMAASDPQACFKGFRRLDLAVHLATKLNRTHLLTSKTTYLFPVLGRTDSDIQASGRQALTVEDSMSMVHASRGFLTPPSDQVRSEVAILAGIAKATLRSKSRVDWDALAGNYDLIRDAIEEVFPDFEAYNDRIRKPGGFQLPNSAAMRIWNTPTGKANFAIFAGLEEDETSTDRDVLRMTSLRAHDQYNTTIYGLNDRYRGVFGRRDVLFLNPKDLARLGFAEGDVVDVATALDYARPDRVVQALTLVSYNLPDGCCASYYPEIQPLVALEFRDPECLTPSYKSIPVKVTAARAPLAADRAVGRDGIVGREPGVETATGPSPVSLID”, the “soluble on expression in E. coli” value is reported as “soluble”.
